Measured values reported in the nanobody polyreactivity screen of Harvey et al. (2022).

Assay: yeast display, Sf9 membrane polyspecificity reagent, FACS + sequencing; frameworks hold sequencing errors
In short: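 Nanobodies came from a synthetic yeast display library in Saccharomyces cerevisiae BJ5465, induced with galactose for 36–48 hours and stained for 1 hour at 4 °C with 10% biotinylated, detergent-solubilized Sf9 membrane reagent. Cells were enriched on streptavidin microbeads and then FACS-sorted, with low and high (top ~1%) gates set on anti-HA fluorescence for expression and streptavidin fluorescence for reagent binding. Each polyreactivity label reflects the gate a clone came from. Genes were amplified by colony PCR, sequenced by MiSeq 2 × 250 and filtered by CDR length.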

## QVQLVESGGGLVQAGGSLRLSCAASGRIFYPYAMGWYREAPGKERELVAAITVRGGRTYYADSVKGRFTFSRDNAKNTVYLQMNSLKPEDTAVYYCAARRWGAYRHGYWGQGTQVTVSS
  polyreactivity (PSR sort gate): high polyreactivity

## QVQLVESGGGLVQAGGILRLSCAASGLTFAKYAMGWYRQAPGKERELVAAITKSSGSTYYADSVKGRFTISRDNAKNTVYFQMNSLKPEDTAVYYCAAGIYAFRRHREEYHYWGQGTQVTVSS
  polyreactivity (PSR sort gate): high polyreactivity

## QVQLVESGGGLVQAGGSLRLSCAASGSARYDMGWYRQPNGKERELVAAISRRGGSTFYADSVKGRFTISRDNAKNTVYLQMNSLKPEDTAVYYCAADGRISYDYWGQGTQVTVSS
  polyreactivity (PSR sort gate): low polyreactivity

## QVQLVESGGGLVQAGGSLRLSCAASGLTFTRYAMGWYIQAPGKEREMVAAISKNGGSTYYADSVKGRFTISRDNAKNTVYLQMNSLKPEDTAVYYCAARRSTSYPAGYDYRGQGTQVTVSS
  polyreactivity (PSR sort gate): high polyreactivity

## QVQLVESGGGLVQAGGSLRLSCAASGFTFDDNAMGWYRQAPGKERELVATISYSDGNTYYADSVKGRFTISRDNAKNTVYLQMNSLIPEDTAVYYCAADDWAVYYIGLDYDYWGQGTQVTVSS
  polyreactivity (PSR sort gate): low polyreactivity

## QVQLVESGGGLVQAGGSLRLSCAASGRTFYRYTMGWYRQAPGKERELVAAIDRRGGSTYYADSVKGRFTISRDNAKNTVYLQMNSLKPEDTAVYYCNAVTHYSFDYWGQGTQVTVSS
  polyreactivity (PSR sort gate): high polyreactivity

## QVQLVESGGGLVQAGGSLRLSCAASGRTFNRYAMGWYRQAPGKERELVAAISYGGGRTYYADSVKGRFTISRDNAKNTVYLQMYSLKPEDTAVYYCNAVFGYQSPGGYDYWGQGTQVTVSS
  polyreactivity (PSR sort gate): high polyreactivity

## QVQLVESGGGLVQAGGSLRLSCAASGRTFRWYGMGWYRQAPGKEREFVAAISFRGGTTYYADSVKGRFTISRDNAKNTVYLQMNSLKPEDTAVYYCAARYGYYTSDYKYYYWGQGTQVTVSS
  polyreactivity (PSR sort gate): high polyreactivity

## QVQIVESGGGLVQAGGSLRLSCAASGSIFGTYAMGWYRQAPGKERELVAAITRRGGSTFYADSVKGRFTISRDNAKNTVYLQMNSLKPEDTAVYDCAAPPYYWGQGTQVTVSS
  polyreactivity (PSR sort gate): high polyreactivity

## QVQLVESGGGLVQAGGSLRLSCAASGRTITFNTMGWYRQAPGKERELVAGIDRGGSTNYADSVKGRFTISRDNAKNTVYLQMNSLKPEDTAVYYCAKRWTGLGGYYYWGQGTQVTVSS
  polyreactivity (PSR sort gate): high polyreactivity

## QVQLVESGGGLVQAGGSLRLSCAASGIIFDDNTMGWYRQAPGKERELVAAISSGGRTYYADSVKGRFTISRDNAKYTVYLQMNSLKPEDTAVYYFNVDIYTYIASNGELDYWGQGTQVTVSS
  polyreactivity (PSR sort gate): low polyreactivity

## QVQLVESGGGLVQAGGSLRLSCDASGRTFIVYAMGWYRQEPGKERELVARISSGSRTSYADSVKGRFTISRDNAKNTVYLQMNSLKPEDTAVYYCNAREYLKPGVPYYSQQLDYWGQGTQVTVSS
  polyreactivity (PSR sort gate): low polyreactivity

## QVHLVESGGGLVQAGGSLRLSCAASGSIFGGYAMGWSRQAPGKERELVAAISYRGASTYYADSVKGRFTISRDNAKNTVYLQMNSLKPEDTAVYYCNADDRGSTYVDFDYWGQGTQVTVSS
  polyreactivity (PSR sort gate): low polyreactivity

## QVHLVESGRGLVQAGGSLSVTCSASGFTFYWYTMGWYRRAPGKERELVAAISRRGGSTSYADSVKGRFTISRDNAKNTVYLKMKILKPDDTAVYYCAKTPGWTDYDYWGQGTQVTVSS
  polyreactivity (PSR sort gate): high polyreactivity

## QGQLEESGGGLVQAGGSLRLSCAASGFTFYDNAMGWYRQAPGKERELVAAISWSGGSTYADSVKGRFTISRDNAKNTVYLLMNSLKPEDTAVYYCNADAWLASGYRYDYWGQGTQVTVSA
  polyreactivity (PSR sort gate): low polyreactivity

## QVQLVESGGGLVQAGGSLRLSCAASGFTFDTNAMGWYRPAPGKERELVAAISRIGGRTYADSVKGRFTISRDNAKNTVYLQMNSLKPEDTAVYYCAADTTWYPYGYDSWGQGTQVTVSS
  polyreactivity (PSR sort gate): low polyreactivity

## QVQLVESGGGLVQAGGSLRLSCAASGSIFLINAMGWYRQAPGKETELVAAISRSGGRTYYADSVKGRFTISRDNAKNTVYLQMNSLKPEDTAVYYCAVPSIYYAGRAYDYWGQGTQVTVSS
  polyreactivity (PSR sort gate): high polyreactivity

## QVQLVESGGGLVQAGGSLRLSCAASGSTFALYAMGWSRPAPGKERELVAAITWSGTGTYYADSVKGRFTISRDNAKNTVYLQMNSLKPEDTAVYYCNAEYWWWGLGNDYWGQGTQVTVSS
  polyreactivity (PSR sort gate): low polyreactivity

## QVQLVESGGGLVQAGGSLRLSCAASGSIFGKYTMGWYRQAPGKERELVAAISRSGSSTYYADSVKGRFTISRDNAKNTVYLQMNSLKPEDTAVYYCAAKFYYGVTSKFESWGQGTQVTVSS
  polyreactivity (PSR sort gate): high polyreactivity

## QVQLVESGGGLVQAGGSLRLSCAASGSIFRRYATGWYRQAPGKERQLVAAISSGGSTYADSVKGRFTISRDNAKNTVYLQMNSLKPEDTAVYYCNASGRWYYGRRYDYWGHGTQVTVSS
  polyreactivity (PSR sort gate): low polyreactivity

## QVQLVESGGGLVQAGGSLRISCAASGRIFYSNTMGWYRQAPGKEREVVARIDTGGGSTYADSVKGRFTISRDNAKKSVYLEMHSLKPADTAVYYCYKKGRWRSWGSTSLVSMDYWGQGTQVTVSS
  polyreactivity (PSR sort gate): low polyreactivity

## QVQLLESGGGLDQARGSLRLSCAASGITFEYNAMGWYRQAPGKERELVAAISLSSGSTYYADSVKGRFTISRDNAKNTVYLQMNSLKPEDTAVYYGNADTIIYEGGYWGQGTQVTVSS
  polyreactivity (PSR sort gate): low polyreactivity

## QVQLVESGGGLVQAGGSLRLSCAASGRNIYSNAMGWYRQAPGKERELVAAIRWRDGATYYADSVKGRFTISRDNAKNTVYLQMNSLKPEDTAVYYCAAVYWGEEYEYWGQGTQVTVSS
  polyreactivity (PSR sort gate): low polyreactivity

## QVQLVESGGGLVQAGGSLRLSCAASGRTFRSYAMGWYRQAPGKEREFVAAISRSGASTRYADSVKGRFTISRDNAKNTVYLQMNSLKPEDTAVYYCAARYYPWKVNRFSYWYDYWGQGTQVTVSS
  polyreactivity (PSR sort gate): high polyreactivity

## QLQLVESGGGLVQAGGSLRLSCAASGSIFDQNAMGWYRHAPGKERELVAAISKSGGSTYYADSVKGRFTISRDNAKNTVYLQLNSLKPEDTAVYYCAARYHYPGNWYNYWGQGTQVTVSS
  polyreactivity (PSR sort gate): low polyreactivity

## QGQLVESGGGLVQAGGSLRLSCAASGSTFGYNVMGWYRQATGKERELVAAINYSGVRTYYADSVKGRFTISRDNAKNTVYLQMNSLIPEDTAVYYCNATPTRAVGPYQYNYWGQGTQVTVSS
  polyreactivity (PSR sort gate): high polyreactivity

## QVQLVESGGGLVQAGGSLRLSCAASGRTFRCYAMGWYRQAPGKETELVAAITFSGGSTYYADSVKGRFTISRDNAKNTVYLQMNSLKPEDTAVYYCNAVYYRRKEYDYWGQGTQVTVSS
  polyreactivity (PSR sort gate): high polyreactivity

## QVQLVESGGGLVQAGGSLRLSCAASGFTFYGNAMGWYRQAPGKERELVAAISGRGGSTYYADSVKGRFTISRDNAKNTVYLQMNSRKPEDTAVYYCNKRGPYRWYSAPYGYWGQGTQVTVSS
  polyreactivity (PSR sort gate): low polyreactivity

## QVQLVESGGGLVQAGGSLRLSCAASGRIFNRYARGWYRQAPGKERELVAAITYNGGSTYYADSVKGRFTISRDNAKNTVYLQMNSLKPEDTAVYYCNAVEVLDEGCGFWYYYWGQGTQVTVSS
  polyreactivity (PSR sort gate): high polyreactivity

## QVQLVESGGGLVQAGGSLRLSCAASGFIFAPYAMGWYRQAPGKERELVAAISWSGGSTYYADSVKGRFTISRDNAKNTVYLQMNSLKPEDTAVYYCAAAGYITRYDRYDYWGQGTQVTVSS
  polyreactivity (PSR sort gate): high polyreactivity

## QVQLVESGGGLVQAGGSLRLSCAASGFTFYRYAMGWYRQAPGKERELVAAISRTGGSTYYADSVKGRFTISRDNAKNTVYLQMNSLKPEDTAVYYCAAERKARTSWYGAASRYYYWGQGTQVTVSS
  polyreactivity (PSR sort gate): high polyreactivity

## QFQLVESGGGLVQAGGSLRLSCAASGLIFRIYAMGWYRQAPGKEREFVAAIRWRGGSTYYADSVKGRFTISRDNAKYTVYLQMNSLKPEDTAVYYCAVRSCPYRPRLDYWGQGTQVTVSS
  polyreactivity (PSR sort gate): high polyreactivity

## QVQLEESGGGLVQAGGSLRLSCAASGSIFDYYAMGWYRKATGKERELVAAISWSGGSTYYADSVKGRFTISRDNAKNTVYLKMIILKPEDTAVYYCAADSSGIGYSSLYFNWGQGSQVTVSS
  polyreactivity (PSR sort gate): low polyreactivity

## QVQLVESGGGLVQAGGSLRLSCAASGSIFSSYAMGWYRQAPGKDRELVAAITRSGGSTYYADSVKGRFTISRDNAKNTVYVQMNSLKPEDTAVYYCNARGKGHYYWGQGTQVTVSS
  polyreactivity (PSR sort gate): high polyreactivity

## QVQLVESGGGLVQAGGSLRLSCAASGSTFTVNAMGWYRQAPGKERELVAAIRWSGDSTYYADSVKGRFTISRDNAKNTVYLQMNSLKPEDTAVYYCARDLYWGSYNYWGQGTQVTVSS
  polyreactivity (PSR sort gate): low polyreactivity

## QVQLVESGGGLLQAGGSLRVSCAASGSTLVGNTMGWYRQAPGKESELLAAITGVGSTNYADSVKGRFTISRDNAKNSVYLQMNSLKPEDTAVYSCAAEYSYTYIVSYLYDMDYWGQATQVTVSS
  polyreactivity (PSR sort gate): low polyreactivity

## QVQLVESGGGLVQAGGSLRLSCAASGRIFRGYAMGWYRQAPGKERELVADISSGASTNYADSVKGRFTISRDNAKNTVYLQMNSLKPEDTAVYYCAAQHSVLAYFEYDYWGQGTQVTVSS
  polyreactivity (PSR sort gate): low polyreactivity

## QLHLVESGGGLVQAGGSLRLSCAASGYIFNYNAMGWSRQAPGTQREFVAAISQGGGSTYYADSVKGRFTISRDNSKYTVYLQMNRLKPEDTAVYYCAADYRSGYREMDYWGQGTQVTVSS
  polyreactivity (PSR sort gate): low polyreactivity

## QVQLVESGGGLVQAGGSLRLSCDASGLIFRPYARGWFRQAPGKERELVAAITSGGSTDYADSVKGRFTISRDNAKNTVYLLMNSLKPADTAVYYCNADIYPHDGYPWQGDYDYWGQGTQVTVSS
  polyreactivity (PSR sort gate): low polyreactivity

## QVHLVESGGGLVQSRGSLRLSCAASGNIFGNNAMGWYRLAPGKERELVAAISSSGTSTYYADSVKGRFTISRDNAKNTVYLQMNSLKPEDTEVYYCNADPLPYDGYYDYDYWGQGTQVTVSS
  polyreactivity (PSR sort gate): low polyreactivity

## QVQLVESGGGLVQAGGSLRLSCAASGSIFTYYVMGWYRQAPGKERELVAAITISGGSTYYADSVKGRFTISRDNAKNTVYLQMNRLNPEDTAVYYCAAEEVYYEADGFLYSYDYWGKGTQVTVSS
  polyreactivity (PSR sort gate): high polyreactivity

## QVQLVESGGGLVQAGCSLRLSCAASGSIFESYAMGWSRQAPGNERELVAAITSSGDSTYYADSVKGRFTITRDNAKNTVYIQMNSLKPEDTAVYYCANRVPTYISTADWGSRYDYWGQGTQVTVSS
  polyreactivity (PSR sort gate): low polyreactivity

## QVQLVESGGGIVQAGGSLRLLCAASGSIFLTNAMGWYRQAPGKERQFVAAIDWGGTITYYADSVKGRFTISRDNAKNNVYLQMNSLKPEDTAVYYCAADGYIRQYVTYYYWGQGTQVTVSS
  polyreactivity (PSR sort gate): low polyreactivity
